Data taken from article PMC11480844.

B1: H2-Kb / G2 (parent)
chain 1: GEQVEQRPPHLSVREGDSAVIICTYTDPNSYYFFWYKQEPGAGLQLLMKVFSSTEINEGQGFTVLLNKKDKQLSLNLTAAHPGDSAVYFCAVRTNQGGRALIFGTGTTVSVSP
chain 2: EAAVTQSPRSKVAVTGGKVTLSCHQTNNHDYMYWYRQDTGHGLRLIHYSYVADSTEKGDIPDGYKASRPSQENFSLILELASLSQTAVYFCASSGTDTEVFFGKGTRLTVV
chain 3: not shown
chain 4: IQKTPQIQVYSRHPPENGKPNILNCYVTQFHPPHIEIQMLKNGKKIPKVEMSDMSFSKDWSFYILAHTEFTPTETDTYACRVKHDSMAEPKTVYWDRDM
chain 5: SIINFEKL
B2: H2-Kb / B10 (parent)
chain 1: GQQVQQSPASLVLQEGENAELQCNFSSTATRLQWFYQRPGGSLVSLLSNPSGTKHTGRLTSTTVTKERRGSLHISSSQITDSGTYLCAPGGSNAKLTFGKGTKLSVKS
chain 2: DPKIIQKPKYLVAVTGSEKILICEQYLGHNAMYWYRQSAKKPLEFMFSYSYQKLMDNQTASSRFQPQSSKKNHLDLQITALKPDDSATYFCASSLRGGNNQAPLFGEGTRLSVL
chain 3: not shown
chain 4: B1 chain 4
chain 5: SIINFEKL
B3: H2-Kb / B2 (parent)
chain 1: GEQVEQRPPHLSVREGDSAVIICTYTDPNSYYFFWYKQEPGAGLQLLMKVFSSTEINEGQGFTVLLNKKDKQLSLNLTAAHPGDSAVYFCAVSQMSNYNVLYFGSGTKLTVEP
chain 2: EAAVTQSPRNKVAVTGGKVTLSCNQTNNHNNMYWYRQDTGHGLRLIHYSYGAGSTEKGDIPDGYKASRPSQENFSLILELATPSQTSVYFCASGTGGSGQLYFGEGSKLTVL
chain 3: not shown
chain 4: B1 chain 4
chain 5: SIINFEKL

Variants of: B1
Assay: % of reporter cells activated (NFAT-GFP), raw
Settings: with G2; scale: % of reporter cells activated
Also: test concentration or dose not given here.

Ratio to parent, by site and new letter:
chain 5 I3: Y 0.904
chain 5 K7: A 1.58, C 1.88, D 1.29, E 1.46, F 1.94, G 0.936, H 1.63, I 1.83, L 2.32, M 1.34, N 1.18, P 1.46, Q 1.12, R 0.664, S 0.824, T 1.27, V 1.13, W 1.34, Y 1.22
chain 5 L8: A 1.06, C 1.06, D 0.904, E 0.696, F 1.09, G 1.54, H 1.78, I 1.04, K 1.4, M 2.01, N 1.54, P 1.24, Q 1.05, R 1.45, S 1.15, T 0.944, V 1.32, W 0.768, Y 0.744
chain 5 N4: A 1.13, C 1.02, D 1.4, E 0.928, F 1.32, G 0.976, H 1.38, I 1.13, K 1.74, L 1.54, M 1.09, P 1.34, Q 1.18, R 0.952, S 1.5, T 0.904, V 1.26, W 2.17, Y 0.936
chain 5 S1: A 1.7, C 1.31, D 1.62, E 1.54, F 1.63, G 1.47, H 1.26, I 1.45, K 1.58, L 1.73, M 1.6, N 1.55, P 1.42, Q 1.22, R 1.02, T 1.07, V 0.976, W 1.34, Y 1.26

Variants of: B2
Assay: % of reporter cells activated (NFAT-GFP), raw
Settings: with B10; scale: % of reporter cells activated

Ratio to parent, by site and new letter:
chain 5 E6: A 0.973, C 1.72, D 1.26, F 1.74, G 1.53, H 0.924, I 0.763, K 1.31, L 1.28, M 1.2, N 0.915, P 0.983, Q 1.31, R 1.9, S 1.65, T 1.75, V 1.44, W 1.09, Y 1.57
chain 5 F5: A 1.31, C 1.1, D 4.25, E 2.36, G 1.63, H 1.27, I 1.83, K 1.49, L 2.41, M 1.49, N 2.03, P 1.86, Q 1.64, R 1.1, S 1.46, T 0.847, V 1.02, W 1.03, Y 1.41
chain 5 I2: A 1.03, C 2.08, D 1.32, E 1.27, F 1.5, G 0.624, H 0.888, K 1.71, L 0.898, M 0.729, N 0.875, P 1, Q 1.43, R 1.05, S 1.22, T 1.49, V 2.51, W 0.82, Y 1.22
chain 5 I3: A 0.702, C 0.746, D 0.864, E 1.13, F 0.897, G 1.61, H 1.53, K 1.47, L 1.93, M 1.2, N 0.966, P 0.949, Q 0.61, R 0.903, S 1.22, T 1.44, V 1.12, W 0.831, Y 1.97
chain 5 K7: A 1.64, C 1.34, D 1.09, E 1.37, F 1.64, G 0.898, H 2.02, I 2.29, L 1.85, M 2.2, N 1.54, P 1.37, Q 0.636, R 1.17, S 1.39, T 1.22, V 1.37, W 1, Y 0.995
chain 5 L8: A 1.07, C 1.27, D 0.849, E 1.53, F 1.03, G 0.683, H 0.966, I 0.769, K 1.12, M 0.831, N 0.915, P 1.39, Q 1.11, R 1.34, S 0.903, T 0.915, V 0.51, W 0.814, Y 0.356
chain 5 N4: A 1.86, C 2.85, D 2.53, E 1.19, F 1.51, G 1.28, H 1.88, I 1.8, K 1.32, L 1.05, M 0.932, P 1.81, Q 1.19, R 1.37, S 1.01, T 1.73, V 1.85, W 1.66, Y 2.14
chain 5 S1: A 0.498, C 1.07, D 0.924, E 0.864, F 0.678, G 0.831, H 1.08, I 1.1, K 1.53, L 1.32, M 1.64, N 1.71, P 0.849, Q 0.831, R 0.627, T 1.1, V 1.15, W 1.07, Y 0.966

Variants of: B3
Assay: % of reporter cells activated (NFAT-GFP), raw
Settings: with B2; scale: % of reporter cells activated

Ratio to parent, by site and new letter:
chain 5 E6: A 0.557, C 0.811, D 0.6, F 0.584, G 1.06, H 0.497, I 0.67, K 1.8, L 0.53, M 0.946, N 0.535, P 0.741, Q 0.724, R 0.573, S 0.751, T 0.746, V 0.422, W 0.6, Y 0.697
chain 5 F5: A 1.27, C 3.54, D 1.06, E 0.573, G 0.438, H 12.1, I 1.82, K 0.741, L 3.33, M 1.38, N 1.95, P 0.703, Q 1.75, R 0.476, S 0.73, T 0.632, V 0.346, W 0.519, Y 7.49
chain 5 I2: A 1.58, C 1.2, D 1, E 0.654, F 2.06, G 0.876, H 0.93, K 1.18, L 4.69, M 2.66, N 0.589, P 0.892, Q 0.573, R 1.36, S 0.714, T 1.68, V 1.91, W 0.768, Y 0.87
chain 5 I3: A 0.741, C 0.795, D 0.481, E 0.432, F 0.324, G 0.568, H 0.676, K 0.427, L 0.724, M 0.659, N 0.389, P 0.692, Q 0.524, R 0.335, S 0.4, T 0.4, V 0.449, W 0.578, Y 0.476
chain 5 K7: A 4.46, C 2.46, D 3.15, E 1.49, F 4.64, G 7.31, H 4.08, I 1.95, L 2.05, M 2.53, N 1.84, P 3.7, Q 1.96, R 1.97, S 3.71, T 1.99, V 12.4, W 7.51, Y 2.46
chain 5 L8: A 8.62, C 2.06, D 0.914, E 0.551, F 8.42, G 0.849, H 2.32, I 0.708, K 1.17, M 3.42
